{
  "source": "patent US20200299408A1",
  "about": "(Genentech, published 2020)",
  "binders": {"B1": {"name": "2C11 (antibody, V domains shown)", "VH": "EVQLVESGGGLVQPGKSLKLSCEASGFTFSGYGMHWVRQAPGRGLESVAYITSSSINIKYADAVKGRFTVSRDNAKNLLFLQMNILKSEDTAMYYCARFDWDKNYWGQGTMVTVSS", "VL": "DIQMTQSPSSLPASLGDRVTINCQASQDISNYLNWYQQKPGKAPKLLIYYTNKLADGVPSRFSGSGSGRDSSFTISSLESEDIGSYYCQQYYNYPWTFGPGTKLEIK"}},
  "biological_target": "T1, murine CD3 (mouse, UniProt P22646 22-189)",
  "T1 construct": "also called mouse CD3",
  "T1 sequence (P22646 22-189)": "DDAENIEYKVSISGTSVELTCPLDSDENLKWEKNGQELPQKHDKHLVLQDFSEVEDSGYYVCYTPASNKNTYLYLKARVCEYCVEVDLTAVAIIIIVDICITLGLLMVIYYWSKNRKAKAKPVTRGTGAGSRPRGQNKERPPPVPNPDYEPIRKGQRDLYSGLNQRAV",
  "assay": "Biacore, monovalent KD of the CD3 arm; CD3 antigen not named on the sheet (reactivity mouse)",
  "data": [
    {"binder": "B1", "values": [
      {"measurement": "Kd", "value": 22, "unit": "nM"}
    ]}
  ]
}
